{
  "source": "paper doi:10.1101/2021.10.20.465058",
  "about": "(bioRxiv, 2021)",
  "key": {"cryo-EM structure [1]": {"biological_target": "the molecule itself", "assay": "cryo-EM structure"}, "[2]": {"biological_target": "the molecule itself", "assay": "single-particle cryo-EM, 2D class averages only"}, "cryo-EM structure [3]": {"biological_target": "the molecule itself", "assay": "cryo-EM structure", "remark": "listed apart in the source"}, "native gel or EMSA": {"biological_target": "the molecule itself", "assay": "native gel or EMSA"}},
  "data": [
    {"protein": "TqsA (transporter of quorum-sensing signal AI-2) from E. coli (natural protein, Escherichia coli K-12, UniProt P0AFS5 1-344, looked up) MAKPIITLNGLKIVIMLGMLVIILCGIRFAAEIIVPFILALFIAVILNPLVQHMVRWRVPRVLAVSILMTIIVMAMVLLLAYLGSALNELTRTLPQYRNSIMTPLQALEPLLQRVGIDVSVDQLAHYIDPNAAMTLLTNLLTQLSNAMSSIFLLLLTVLFMLLEVPQLPGKFQQMMARPVEGMAAIQRAIDSVSHYLVLKTAISIITGLVAWAMLAALDVRFAFVWGLLAFALNYIPNIGSVLAAIPPIAQVLVFNGFYEALLVLAGYLLINLVFGNILEPRIMGRGLGLSTLVVFLSLIFWGWLLGPVGMLLSVPLTIIVKIALEQTAGGQSIAVLLSDLNKE", "values": [
      {"measurement": "stoichiometry N", "setting": "cryo-EM structure [1]", "result": 5}
    ]},
    {"protein": "YdiK, AI-2 exporter from E. coli (natural protein, Escherichia coli K-12, UniProt P0AFS7 1-370, looked up) MVNVRQPRDVAQILLSVLFLAIMIVACLWIVQPFILGFAWAGTVVIATWPVLLRLQKIMFGRRSLAVLVMTLLLVMVFIIPIALLVNSIVDGSGPLIKAISSGDMTLPDLAWLNTIPVIGAKLYAGWHNLLDMGGTAIMAKVRPYIGTTTTWFVGQAAHIGRFMVHCALMLLFSALLYWRGEQVAQGIRHFATRLAGVRGDAAVLLAAQAIRAVALGVVVTALVQAVLGGIGLAVSGVPYATLLTVLMILSCLVQLGPLPVLIPAIIWLYWTGDTTWGTVLLVWSGVVGTLDNVIRPMLIRMGADLPLILILSGVIGGLIAFGMIGLFIGPVLLAVSWRLFAAWVEEVPPPTDQPEEILEELGEIEKPNK", "values": [
      {"measurement": "stoichiometry N", "setting": "cryo-EM structure [1]", "result": 5}
    ]},
    {"protein": "YhhT, AI-2 exporter from E. coli (natural protein, Escherichia coli K-12, UniProt P0AGM0 1-349, looked up) METPQPDKTGMHILLKLASLVVILAGIHAAADIIVQLLLALFFAIVLNPLVTWFIRRGVQRPVAITIVVVVMLIALTALVGVLAASFNEFISMLPKFNKELTRKLFKLQEMLPFLNLHMSPERMLQRMDSEKVVTFTTALMTGLSGAMASVLLLVMTVVFMLFEVRHVPYKMRFALNNPQIHIAGLHRALKGVSHYLALKTLLSLWTGVIVWLGLELMGVQFALMWAVLAFLLNYVPNIGAVISAVPPMIQVLLFNGVYECILVGALFLVVHMVIGNILEPRMMGHRLGMSTMVVFLSLLIWGWLLGPVGMLLSVPLTSVCKIWMETTKGGSKLAILLGPGRPKSRLPG", "values": [
      {"measurement": "stoichiometry N", "setting": "[2]", "result": 5}
    ]},
    {"protein": "Aq_740, AI-2 exporter from Aquifex aeolicus (natural protein, UniProt O66948 1-353, looked up) MNKLSLFVYLFFFLSFLFLFLYLLQPFFNPIVWAIVFGIVLYPLYGFIKRKLKSENLAAFLVIFIVLVAIVIPFTIFAVITAQQIIVFSIKVVNFVQTHSVNDLINSLKEIPFLKEKRESLEPLLNYLQSEEFRRALINALNSILTFVGDRLRSYVYTAGTSLFHVFVFLLTLFFILRDGEKVLKEIINSIPMKREDLEEILKTIYRTVLAVIYGTVGTAVAQSIMGFIGYSLAGVEFALIWALITFFAAFVPPFGAAFVWVPMDIYLFTTKGIKEGLILLFFGTFLISTMDNIVRPLVMKQGIKLPYVALFFSTIGGLIKFGFIGVFLGPIILSTMLASVKIYRRRVIHSGI", "values": [
      {"measurement": "stoichiometry N", "setting": "cryo-EM structure [3]", "result": 5}
    ]},
    {"protein": "PerM, AI-2 exporter from E. coli (natural protein, Escherichia coli K-12, UniProt P0AFI9 1-353, looked up) MLEMLMQWYRRRFSDPEAIALLVILVAGFGIIFFFSGLLAPLLVAIVLAYLLEWPTVRLQSIGCSRRWATSIVLVVFVGILLLMAFVVLPIAWQQGIYLIRDMPGMLNKLSDFAATLPRRYPALMDAGIIDAMAENMRSRMLTMGDSVVKISLASLVGLLTIAVYLVLVPLMVFFLLKDKEQMLNAVRRVLPRNRGLAGQVWKEMNQQITNYIRGKVLEMIVVGIATWLGFLLFGLNYSLLLAVLVGFSVLIPYIGAFVVTIPVVGVALFQFGAGTEFWSCFAVYLIIQALDGNLLVPVLFSEAVNLHPLVIILSVVIFGGLWGFWGVFFAIPLATLIKAVIHAWPDGQIAQE", "values": [
      {"measurement": "stoichiometry N", "setting": "native gel or EMSA", "result": 2}
    ]}
  ]
}
